# Experimental data taken from patent publication EP4534102A1, “ANTIBODY DRUG CONJUGATE (ADC) TARGETING NECTIN 4 AND COMPRISING AN EXATECAN PAYLOAD” (Eli Lilly and Company, priority 2023, dated 2025).
# Experiment: Aggregation by SEC-HPLC
# Format: physicochemical
# Experimental: As determined by SEC-HPLC, less than 5% material was aggregated. […] (See Figure 2 and corresponding Brief Description). […] (See Figure 3 and corresponding Brief Description). In vitro cytotoxic activity was assessed for the HCT-116-2G10 clone expressing human nectin-4. (See Figure 4 and corresponding Brief Description).
# As a comparator ADC, the HA22 anti-Nectin-4 mAb was conjugated to maleimidocaproyl-valine-citrulline-PABC-MMAE to generate enfortumab vedotin. Briefly, a 15 mg/mL solution of the HA22 in 10 mM acetate 1% sorbitol, 3% L-arginine, pH 5.0 was supplemented with a 20% volume of 0.1 M Tris, 25 mM EDTA and 750 mM NaCl, pH 8.4 to adjust the pH of the solution to 7.5, 5 mM EDTA and 150 mM sodium chloride. […] The mixture was stirred for 60 minutes at 5° C, then for 15 additional minutes following the addition of 1 molar equivalents of N-acetylcysteine relative to cysteine reactive linker-MMAE compound. Excess quenched cysteine reactive linker-payload and other reaction components were removed by ultrafiltration/diafiltration of the antibody drug conjugate (ADC) with 10 volumes of 20 mM histidine, pH 6.0. The drug-antibody ratio (DAR) according to LC-MS analysis was 3.79 toxins per conjugated mAb. As determined by SEC-HPLC, less than 1% material was aggregated.
substance,measurement,value
enfortumab vedotin: HA22 anti-Nectin-4 mAb conjugated to maleimidocaproyl-valine-citrulline-PABC-MMAE; comparator ADC,material aggregated,less than 1%
